From paper PMC8751750, “Effect of using different co-ligands during ^99mTc-labeling of J18 peptide on SK-MES-1 cell binding and tumor targeting” (Iranian Journal of Basic Medical Sciences, 2021)
Entries after “also recorded” stand apart in the source; their conditions may differ. Like-named read-outs stand apart in the source and are kept apart here. Peptide text beside a SMILES is read from it.

Tests used:
[1] = Biodistribution in SK-MES-1 xenografted nude mice; assay type: in vivo, female C57 nu/nu mice; conditions: female, C57 nu/nu, mouse, in vivo, iv, total radioactivity, SK-MES-1 xenograft nude mice, n=4; for tissue uptake at 1 h / tissue uptake at 2 h / tissue uptake at 4 h: mean ± SD
Protocol: The tumor biodistribution and targeting properties of the radiolabeled peptides were carried out in female C57 nu/nu mice bearing SK-MES-1 (Pasture Institute, North Branch and Amol, Iran). The tumor was grafted by subcutaneous injection of SK-MES-1 cells at a concentration of 4×10^6 cells/mouse into the right front flank of the mice and left to grow over a period of 20 days. The mice were ready for biodistribution when tumor size reached 0.7–1 cm^3 in mean diameter, all mice received intravenous co-injections of (^99mTc) Tc-HYNIC-(Ser)3-J18 peptide 1 or (^99mTc )Tc-HYNIC-(Ser)3-J18 peptide 2 (1 μg in 100 μl buffer) after 1, 2, and 4 hr post-injection, respectively (n=4 mice per group). In order to measure the radiopeptides’ nonspecific uptake of the radiopeptides, one group of four animals was injected with 300 μg of non-labeled peptide in a 50 μl buffer. The mice in the blocking group were euthanized 2 hr after the injection. Mice organ and tissue samples were collected, and radioactivity uptake was calculated as a percentage of the administered dose per gram tissue (%ID/g).

[2] = Biodistribution in normal mice; assay type: in vivo; conditions: i.v. 1 μg in 100 μl (18.5 MBq), mean±SD, n=4; for Intestine uptake (with contents): normal female NMRI mice
Protocol: All animal investigations were approved by Mazandaran University of Medical Sciences Research and Ethical Committee in Sari, Iran. Twelve normal female NMRI mice (20–30 g) were randomly divided into three groups of four. 1 μg of (^99mTc) Tc –HYNIC–J18 peptide in 100 μl of buffer (18.5 MBq) was injected into the tail vein. All animals were sacrificed one, four, and twenty-four hours following radiolabeled peptide injection. Mice were euthanized with an appropriate dose of ketamine/xylazine (Sigma, USA) diluted with sterile water (1:3 v/v). Following deep anesthesia, blood was extracted by heart puncture with a 1-mL syringe washed with diluted heparin. Blood, liver, spleen, salivary gland, stomach, kidney, muscle, and bone samples were dissected and weighed, and radioactivity was measured. Except for the intestines, which were computed as a percentage of the injected dose per gram tissue (percent ID/g), the tissue uptake data was calculated as a percentage of the administered dose per total sample.

[3] = test system: SK-MES-1, A-549, SKOV-3 and MCF-7 cells; experiment: In vitro receptor binding of radiolabeled peptides on four cell lines; set-up: species or system human; conditions: 2 hr at 37 °C
Protocol: The in vitro receptor binding of the^ 99mTc-labeled peptide was evaluated using SK-MES-1 a human lung squamous cell carcinoma, SKOV-3 human ovarian carcinoma, and A-549 human lung adenocarcinoma epithelial and MCF-7 human breast cancer cell lines. All cell lines were kept at 37 °C in a 5% CO2 incubator and were maintained in Dulbecco’s DMEM-high glucose supplemented with 10% FBS. Cells were plated in 24-well plates at a density of 4×10^5 cells/well in 1 ml of complete medium and incubated for 24 hr to allow in cells to settle. Following a wash with cold serum-free media or PBS, 40 nM radiolabeled peptides in the full medium were given to the cells, which were then incubated at 37 °C for 2 hr. Finally, cells in culture plates were trypsinized and released, and radioactivity in the cells was measured. To determine specific versus nonspecific binding, SK-MES-1 cells were seeded into 12-well plates at a density of 5×10^5 cells/well and incubated with unlabeled peptides at a concentration 500-fold higher than the labeled peptide for 20 min at 37 °C, followed by the addition of the radiolabeled peptide to the wells. These cells were incubated for 2 hr at 37 °C in a humidified incubator.

[4] = test system: SK-MES-1 cells; experiment: Saturation binding assay on SK-MES-1 cells; set-up: species or system human
Protocol: The affinities of (^99mTc) Tc-HYNIC-peptides were determined utilizing a saturation binding experiment with cultivated cells in vitro for determination of the dissociation constant as KD and the number of binding sites per cell (Bmax). SK-MES-1 cells were incubated for 2 hr at 37 °C with increasing concentrations of (^99mTc) Tc- HYNIC- peptides (0.1, 0.5, 1, 2.5, 5, 25, and 50 nM). One dish served as a blocking sample, and it was immersed in a blocking solution containing a 500-fold excess of the non-labeled peptide. For each concentration, three dishes were utilized. Following incubation, the media was withdrawn, and the cells were trypsinized and collected for Gamma counter activity measurement. Prism 5 software (Ver. 5.0) was used to examine the particular binding data using nonlinear regression.

[5] = test system: A-549 cells; conditions: previously reported, listed as 99mTc-HYNIC-(Ser)3-J18 (Tricine); cited from earlier work
Source text: Table 1 Overview of affinity binding ^99mTc-HYNIC-(Ser)3-J18 on SK-MES-1 vs A-549 cell line | column: A-549 / Tricine; A-549 / tricine/EDDA

[6] = 1 ug, i.v. 1 μg in 100 μl, read-out: Muscle uptake
[7] = 1 ug, i.v. 1 μg in 100 μl, read-out: Spleen uptake
[8] = 1 ug, i.v. 1 μg in 100 μl, read-out: Tumor uptake
[9] = 1 ug, read-out: Tumor/blood ratio
[10] = 1 ug, read-out: Tumor/bone ratio
[11] = 1 ug, read-out: Tumor/liver ratio
[12] = 1 ug, read-out: Tumor/muscle ratio

Q: What does the source list for `CC(C)C[C@H](NC(=O)[C@H](CO)NC(=O)[C@H](CCCNC(=N)N)NC(=O)[C@H](CO)NC(=O)[C@H](CO)NC(=O)[C@H](CO)NC(=O)c1ccc(NN)nc1)C(=O)N[C@@H](Cc1c[nH]c2ccccc12)C(=O)N[C@@H](CO)C(=O)N[C@@H](CC(=O)O)C(=O)N[C@@H](Cc1ccccc1)C(=O)N[C@@H](Cc1ccc(O)cc1)C(=O)N[C@@H](C)C(=O)N[C@@H](CO)C(=O)N[C@@H](C)C(=O)N[C@@H](CO)C(=O)N[C@@H](CCCNC(=N)N)C(=O)NCC(=O)N1CCC[C@H]1C(=O)O` [Peptide 1, (^99mTc)Tc-HYNIC-(Ser)3-J18 with tricine, metal not drawn] (HELM PEPTIDE1{[NNc1ccc(C(=O)[*:2])cn1].S.S.S.R.S.L.W.S.D.F.Y.A.S.A.S.R.G.P}$$$$V2.0; C-terminus assumed)?
A: tissue uptake at 1 h ([1]; 1 ug, i.v. 1 μg in 100 μl, read-out: Blood uptake): 0.18 ± 0.09 %ID/g; tissue uptake at 1 h [1, 6]: 0.19 ± 0.05 %ID/g; tissue uptake at 1 h [1, 7]: 0.25 ± 0.07 %ID/g; tissue uptake at 1 h ([1]; 1 ug, i.v. 1 μg in 100 μl, read-out: Stomach uptake): 0.38 ± 0.09 %ID/g; tissue uptake at 1 h [1, 8]: 0.97 ± 0.03 %ID/g; tissue to tissue ratio at 1 h [1, 9]: 5.36; tissue to tissue ratio at 1 h [1, 10]: 7.46; tissue to tissue ratio at 1 h [1, 11]: 3.59; tissue to tissue ratio at 1 h [1, 12]: 5.1; tissue uptake at 2 h ([1]; 1 ug, 2 hr, i.v. 1 μg in 100 μl, read-out: Heart uptake): 0.12 ± 0.04 %ID/g; tissue uptake at 2 h ([1]; 1 ug, 2 hr, i.v. 1 μg in 100 μl, read-out: Liver uptake): 0.2 ± 0.09 %ID/g; tissue uptake at 2 h ([1]; 1 ug, 2 hr, i.v. 1 μg in 100 μl, read-out: SG&T (salivary glands and thyroid) uptake): 0.13 ± 0.05 %ID/g; tissue uptake at 2 h ([1]; 1 ug, 2 hr, i.v. 1 μg in 100 μl, read-out: Spleen uptake): 0.15 ± 0.04 %ID/g; tissue uptake at 2 h ([1]; 1 ug, 2 hr, i.v. 1 μg in 100 μl, read-out: Stomach uptake): 0.25 ± 0.03 %ID/g; tissue uptake at 2 h ([1]; 1 ug, 2 hr, i.v. 1 μg in 100 μl, read-out: Tumor uptake): 0.5 ± 0.03 %ID/g; tissue to tissue ratio at 2 h ([1]; 1 ug, 2 hr, read-out: Tumor/liver ratio): 2.5; tissue to tissue ratio at 2 h ([1]; 1 ug, 2 hr, read-out: Tumor/muscle ratio): 6.16; tissue uptake at 4 h ([1]; 1 ug, i.v. 1 μg in 100 μl, read-out: Bone uptake): 0.01 %ID/g; tissue uptake at 4 h ([1]; 1 ug, i.v. 1 μg in 100 μl, read-out: Heart uptake): 0.07 ± 0.01 %ID/g; tissue uptake at 4 h ([1]; 1 ug, i.v. 1 μg in 100 μl, read-out: Kidney uptake): 0.27 ± 0.03 %ID/g; tissue uptake at 4 h ([1]; 1 ug, i.v. 1 μg in 100 μl, read-out: Liver uptake): 0.07 ± 0.02 %ID/g; tissue uptake at 4 h ([1]; 1 ug, i.v. 1 μg in 100 μl, read-out: Lung uptake): 0.04 ± 0.01 %ID/g; tissue uptake at 4 h [1, 6]: 0.04 ± 0.01 %ID/g; tissue uptake at 4 h ([1]; 1 ug, i.v. 1 μg in 100 μl, read-out: SG&T (salivary glands and thyroid) uptake): 0.03 ± 0.02 %ID/g; tissue uptake at 4 h [1, 7]: 0.03 ± 0.01 %ID/g; tissue uptake at 4 h [1, 8]: 0.2 ± 0.09 %ID/g; tissue to tissue ratio at 4 h [1, 9]: 3.81; tissue to tissue ratio at 4 h [1, 10]: 20; tissue to tissue ratio at 4 h ([1]; 1 ug, read-out: Tumor/kidney ratio): 0.74; tissue to tissue ratio at 4 h [1, 11]: 2.85; tissue to tissue ratio at 4 h [1, 12]: 5; tissue uptake at 2 h ([1]; 2h-blocked (300 μg non-labeled peptide 0.5 hr before), i.v. 1 μg, read-out: Blood uptake): 0.36 ± 0.02 %ID/g; tissue uptake at 2 h ([1]; 2h-blocked (300 μg non-labeled peptide 0.5 hr before), i.v. 1 μg, read-out: Heart uptake): 0.18 ± 0.03 %ID/g; tissue uptake at 2 h ([1]; 2h-blocked (300 μg non-labeled peptide 0.5 hr before), i.v. 1 μg, read-out: Kidney uptake): 3.2 ± 0.02 %ID/g; tissue uptake at 2 h ([1]; 2h-blocked (300 μg non-labeled peptide 0.5 hr before), i.v. 1 μg, read-out: Liver uptake): 0.23 ± 0.04 %ID/g; tissue uptake at 2 h ([1]; 2h-blocked (300 μg non-labeled peptide 0.5 hr before), i.v. 1 μg, read-out: Muscle uptake): 0.23 ± 0.03 %ID/g; tissue uptake at 2 h ([1]; 2h-blocked (300 μg non-labeled peptide 0.5 hr before), i.v. 1 μg, read-out: SG&T (salivary glands and thyroid) uptake): 0.17 ± 0.02 %ID/g; tissue uptake at 2 h ([1]; 2h-blocked (300 μg non-labeled peptide 0.5 hr before), i.v. 1 μg, read-out: Spleen uptake): 0.2 ± 0.01 %ID/g; tissue uptake at 2 h ([1]; 2h-blocked (300 μg non-labeled peptide 0.5 hr before), i.v. 1 μg, read-out: Stomach uptake): 0.3 ± 0.02 %ID/g; tissue to tissue ratio at 2 h ([1]; 2h-blocked (300 μg non-labeled peptide), read-out: Tumor/blood ratio): 0.8; tissue to tissue ratio at 2 h ([1]; 2h-blocked (300 μg non-labeled peptide), read-out: Tumor/liver ratio): 1.26; tissue to tissue ratio at 2 h ([1]; 2h-blocked (300 μg non-labeled peptide), read-out: Tumor/muscle ratio): 1.26; Intestine uptake (with contents) ([2]; 4 hr): 5.85±2.14 percentage of injected dose per whole sample; Intestine uptake (with contents) ([2]; 24 hr): 1.11±0.38 percentage of injected dose per whole sample; tissue uptake at 4 h ([2]; female, NMRI, mouse, spleen, iv, 1 ug, total radioactivity, 4 hr): 2.24 ± 1.81 %ID/g; cellular affinity, in words ([3]; 40 nM radiolabeled peptide): strongest cellular affinity for the SK-MES-1 cell line; receptor binding affinity (as CPM/Cells value), tricine vs tricine/EDDA as coligand ([3]; higher than tricine/EDDA as coligand, 40 nM): 2.5 fold; Bmax ([4]; Figure 4, saturation binding, 2 hr at 37 °C, listed as 99mTc-(tricine)-HYNIC-(Ser)3-J18): (2.2±0.2)·10^4 binding sites/cell; binding affinity for SK-MES-1, in words ([4]; listed as 99mTc-peptide 1): high binding affinity; also recorded: good receptor-binding affinity; Kd ([4]; saturation binding, 0.1-50 nM, 2 hr at 37 °C, blocking with 500-fold excess non-labeled peptide, three dishes per concentration, Prism 5 nonlinear regression, listed as 99mTc-HYNIC-(Ser)3-J18 (Tricine)): 3.1 ± 0.3 nM; Bmax ([4]; saturation binding, 0.1-50 nM, 2 hr at 37 °C, three dishes per concentration, Prism 5 nonlinear regression, listed as 99mTc-HYNIC-(Ser)3-J18 (Tricine)): (2.2± 0.2)×10 ^4 binding sites/cell; Kd [5]: 4.1 ± 1.3 nM
